From patent publication US20040081647

B1: Cathepsin G (enzyme, UniProt P08311 21-244, looked up, species assumed)
Cathepsin G: IIGGRESRPHSRPYMAYLQIQSPAGQSRCGGFLVREDFVLTAAHCWGSNINVTLGAHNIQRRENTQQHITARRAIRHPQYNQRTIQNDIMLLQLSRRVRRNRNVNPVALPRAQEGLRPGTLCTVAGWGRVSMRRGTDTLREVQLRVQRDRQCLRIFGSYDPRRQICVGDRRERKAAFKGDSGGPLLCNNVAHGIVSYGKSSGVPPEVFTRVSSFLPWIRTTMRS
B2: MMP7 (enzyme, UniProt P09237 95-267, looked up, species assumed)
Matrilysin: YSLFPNSPKWTSKVVTYRIVSYTRDLPHITVDRLVSKALNMWGKEIPLHFRKVVWGTADIMIGFARGAHGDSYPFDGPGNTLAHAFAPGTGLGGDAHFDEDERWTDGSSLGINFLYAATHELGHSLGMGHSSDPNAVMYPTYGNGDPQNFKLSQDDIKGIQKLYGKRSNSRKK
B3: ADAMTS4 (enzyme, UniProt O75173 213-837, looked up, species assumed)
A disintegrin and metalloproteinase with thrombospondin motifs 4: FASLSRFVETLVVADDKMAAFHGAGLKRYLLTVMAAAAKAFKHPSIRNPVSLVVTRLVILGSGEEGPQVGPSAAQTLRSFCAWQRGLNTPEDSDPDHFDTAILFTRQDLCGVSTCDTLGMADVGTVCDPARSCAIVEDDGLQSAFTAAHELGHVFNMLHDNSKPCISLNGPLSTSRHVMAPVMAHVDPEEPWSPCSARFITDFLDNGYGHCLLDKPEAPLHLPVTFPGKDYDADRQCQLTFGPDSRHCPQLPPPCAALWCSGHLNGHAMCQTKHSPWADGTPCGPAQACMGGRCLHMDQLQDFNIPQAGGWGPWGPWGDCSRTCGGGVQFSSRDCTRPVPRNGGKYCEGRRTRFRSCNTEDCPTGSALTFREEQCAAYNHRTDLFKSFPGPMDWVPRYTGVAPQDQCKLTCQAQALGYYYVLEPRVVDGTPCSPDSSSVCVQGRCIHAGCDRIIGSKKKFDKCMVCGGDGSGCSKQSGSFRKFRYGYNNVVTIPAGATHILVRQQGNPGHRSIYLALKLPDGSYALNGEYTLMPSPTDVVLPGAVSLRYSGATAASETLSGHGPLAQPLTLQVLVAGNPQDTRLRYSFFVPRPTPSTPRPTPQDWLHRRAQILEILRRRPWAGRK

Target: recombinant human TNFα (RDI) (UniProt P01375)
Sequence (P01375 77-233): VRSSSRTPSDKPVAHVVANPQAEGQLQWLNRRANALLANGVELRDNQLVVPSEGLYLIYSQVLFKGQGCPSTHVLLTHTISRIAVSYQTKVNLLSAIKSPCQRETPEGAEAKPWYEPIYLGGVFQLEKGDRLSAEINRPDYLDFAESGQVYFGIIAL

Protein | inactivation of TNFα (L929 cytotoxicity bioassay after overnight digestion) | log reduction in TNFα activity (L929 cytotoxicity bioassay after overnight digestion)
B1 | Cathepsin G (under: Proteases that did not inactivate TNF) | –
B2 | – | MMP7 (1.22)
B3 | ADAMTS4 (under: Proteases that did not inactivate TNF) | –
